Assay results taken from EP4279506A1 (Persongen Biotherapeutics (Suzhou) Co., Ltd., dated 2023).
Substitutions are numbered along the chain they refer to.

B1: mouse anti-human mB7-H3 antibody (antibody, V domains shown)
VH: EVTLVESGGGLVKPGGSLKLSCAASGFTFSTYVMSWVRQTPEKRLEWVASILSGGTSFYADNVKGRFTISRENARNILYLQMSSLKSEDTAMYYCVRRYGHDHYYAMDYWGQGTSVTVSS
VL: QIVLTQSPANMSASLGERVTMTCAASSSVSSSYLHWYQQKPGSSPKLWIYSTSNLASGVPGRFNGSGSGTSYSLTISSMEAEDAATYYCHQYHRSPWTFGGGTKLEIK
B2: humanized B7-H3 antibody T1H1-T1L1 (αhB7-H3 antibody) (antibody, V domains shown)
VH: EVQLVESGGGLIQPGGSLRLSCAASGFTFSTYVMSWVRQAPGKGLEWVSSILSGGTSFYADNVKGRFTISRDNSKNTLYLQMNSLRAEDTAVYYCARRYGHDHYYAMDYWGQGTLVTVSS
VL: EIVLTQSPATLSLSPGERATLSCAASSSVSSSYLHWYQQKPGLAPRLLIYSTSNLASGIPDRFSGSGSGTDFTLTISRLEPEDFAVYYCQQYHRSPWTFGGGTKVEIK
notes: They were subcloned into the pcDNA3.1-IgG1Fc (heavy) and pcDNA3.1-IgKc (light) expression vectors; The antibody was detected with anti-human IgG; also called αhB7-H3 Ab; B7-H3 T1H1-T1L1
B3: humanized B7-H3 antibody T2H1-T2L1 (βhB7-H3 antibody) (antibody, V domains shown)
VH: B2 VH with L11V, I12V, Q13R, S74A, T77S, V92L, Y94H, L115T
VL: DIQMTQSPSTLSASVGDRVTITCAASSSVSSSYLHWYQQKPGKAPKLLIYSTSNLASGVPSRFSGSGSGTEFTLTISSLQPDDFATYYCQQYHRSPWTFGQGTKLEIK

Legend:
[1] = molecular target: B7-H3-His recombinant protein (UniProt Q5ZPR3); test: SPR; B7-H3-His on CM5 chip, antibody as mobile phase
[2] = molecular target: T1, human 4Ig-B7-H3 (h4IgB7H3) expressed on Raji cells (human, UniProt Q5ZPR3 29-534); test: flow cytometry on h4IgB7H3-Raji cells
T1 construct: whole, on cells; also called h4IgB7H3-Raji
T1 sequence (looked up): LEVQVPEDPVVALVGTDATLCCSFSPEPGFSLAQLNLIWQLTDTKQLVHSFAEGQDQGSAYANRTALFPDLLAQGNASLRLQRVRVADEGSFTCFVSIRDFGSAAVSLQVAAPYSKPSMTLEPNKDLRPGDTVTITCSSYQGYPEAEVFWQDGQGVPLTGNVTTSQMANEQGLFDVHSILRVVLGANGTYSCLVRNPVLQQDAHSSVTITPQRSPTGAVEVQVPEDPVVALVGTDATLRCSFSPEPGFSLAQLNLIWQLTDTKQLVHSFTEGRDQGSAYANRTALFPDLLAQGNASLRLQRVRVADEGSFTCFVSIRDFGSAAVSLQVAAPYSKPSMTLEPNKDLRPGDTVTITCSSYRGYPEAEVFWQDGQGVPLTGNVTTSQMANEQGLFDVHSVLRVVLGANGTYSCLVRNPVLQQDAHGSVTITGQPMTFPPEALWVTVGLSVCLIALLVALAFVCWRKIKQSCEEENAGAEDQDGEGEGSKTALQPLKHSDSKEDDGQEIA

[3] = molecular target: T2, murine 2Ig-B7-H3 (m2IgB7H3) expressed on Raji cells (mouse, UniProt Q8VE98 29-316); test: flow cytometry on m2IgB7H3-Raji cells
T2 construct: whole, on cells; also called m2IgB7H3-Raji; mB7-H3-Raji
T2 sequence (looked up): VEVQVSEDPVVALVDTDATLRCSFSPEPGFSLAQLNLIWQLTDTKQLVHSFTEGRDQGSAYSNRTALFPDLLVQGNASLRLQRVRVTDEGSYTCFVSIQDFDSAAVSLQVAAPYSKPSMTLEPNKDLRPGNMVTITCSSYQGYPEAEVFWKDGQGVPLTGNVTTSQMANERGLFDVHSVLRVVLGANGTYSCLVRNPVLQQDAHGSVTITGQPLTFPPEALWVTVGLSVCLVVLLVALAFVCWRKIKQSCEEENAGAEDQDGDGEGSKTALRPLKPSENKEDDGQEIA

Binder	Kd [1] [nM]	koff [1] [s⁻¹]	kon [1] [M⁻¹ s⁻¹]	binding result [2]	binding result [3]
B1	70.8	0.00258	36400		
B2	114	0.00282	24800	binds	binds
B3	72.8	0.00289	39700		
